Values of other authors, collected in paper PMC2875293.

Target: Sep15 (Homo sapiens) (UniProt O60613)
Sequence (O60613 32-165): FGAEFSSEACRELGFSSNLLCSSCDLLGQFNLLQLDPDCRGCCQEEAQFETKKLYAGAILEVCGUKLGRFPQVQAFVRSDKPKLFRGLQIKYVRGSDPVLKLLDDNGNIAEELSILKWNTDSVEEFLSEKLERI

GT1 (UDP-glucose:glycoprotein glucosyltransferase 1), sequence (Q9NYU2 43-1555): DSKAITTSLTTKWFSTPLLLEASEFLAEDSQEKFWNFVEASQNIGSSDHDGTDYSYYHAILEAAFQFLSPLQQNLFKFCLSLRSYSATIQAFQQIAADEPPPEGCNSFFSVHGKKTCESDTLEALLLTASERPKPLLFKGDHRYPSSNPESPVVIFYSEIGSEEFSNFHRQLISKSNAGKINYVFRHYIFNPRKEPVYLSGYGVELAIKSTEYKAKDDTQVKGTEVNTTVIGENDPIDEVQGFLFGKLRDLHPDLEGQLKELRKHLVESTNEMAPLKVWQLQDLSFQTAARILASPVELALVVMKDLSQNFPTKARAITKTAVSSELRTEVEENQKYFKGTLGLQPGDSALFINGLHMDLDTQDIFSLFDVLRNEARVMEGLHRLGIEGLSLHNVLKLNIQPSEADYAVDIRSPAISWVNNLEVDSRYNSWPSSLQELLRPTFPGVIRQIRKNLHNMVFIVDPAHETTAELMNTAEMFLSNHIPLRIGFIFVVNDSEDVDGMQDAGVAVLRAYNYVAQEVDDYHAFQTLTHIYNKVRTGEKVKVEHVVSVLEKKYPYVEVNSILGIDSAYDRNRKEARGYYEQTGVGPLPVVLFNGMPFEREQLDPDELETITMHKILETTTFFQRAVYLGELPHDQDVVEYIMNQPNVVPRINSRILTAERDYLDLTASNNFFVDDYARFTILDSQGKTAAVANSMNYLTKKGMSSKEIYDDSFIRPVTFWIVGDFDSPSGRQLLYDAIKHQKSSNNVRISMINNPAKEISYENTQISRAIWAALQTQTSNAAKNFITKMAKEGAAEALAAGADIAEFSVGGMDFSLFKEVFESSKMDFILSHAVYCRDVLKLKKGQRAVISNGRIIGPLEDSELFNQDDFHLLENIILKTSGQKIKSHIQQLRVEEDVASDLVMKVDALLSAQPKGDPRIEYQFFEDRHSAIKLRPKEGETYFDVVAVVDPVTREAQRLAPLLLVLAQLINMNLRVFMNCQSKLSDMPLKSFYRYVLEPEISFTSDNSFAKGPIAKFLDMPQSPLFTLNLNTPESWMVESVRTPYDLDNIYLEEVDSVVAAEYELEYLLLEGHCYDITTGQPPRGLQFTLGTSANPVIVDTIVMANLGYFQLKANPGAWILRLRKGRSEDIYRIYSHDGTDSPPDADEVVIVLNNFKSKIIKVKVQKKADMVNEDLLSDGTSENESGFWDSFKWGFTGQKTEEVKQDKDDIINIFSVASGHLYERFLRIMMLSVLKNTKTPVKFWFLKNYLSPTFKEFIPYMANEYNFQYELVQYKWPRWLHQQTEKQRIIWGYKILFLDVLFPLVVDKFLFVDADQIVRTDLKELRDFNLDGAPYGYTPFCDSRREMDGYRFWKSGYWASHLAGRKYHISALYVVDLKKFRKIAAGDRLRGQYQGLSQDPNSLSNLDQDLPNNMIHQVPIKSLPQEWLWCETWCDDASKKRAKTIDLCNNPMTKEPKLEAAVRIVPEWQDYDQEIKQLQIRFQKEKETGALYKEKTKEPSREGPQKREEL

Kd: < 0.02 µM
Substance: GT1 (UDP-glucose:glycoprotein glucosyltransferase 1) (from UniProt Q9NYU2)
